# Test results reported in patent US20090214535A1.
# Target: monkey Mpl (on BaF3-monkey Mpl cells) (monkey)
substance,measurement,value
hTPO (ligand),EC50 (read off the curve) [B) BaF-monkey Mpl],0.01 nM
